Experiment [1] deals with PPD1 (diphosphonucleotide phosphatase/phosphodiesterase) (Lupinus luteus, UniProt Q8VX11). To be noted: active site, bidentate, bridging Fe and Mn; crystals from acetate pH 5.2 and Morpheus solution pH 6.5.
Experiment [2] deals with Diphosphonucleotide phosphatase/phosphodiesterase (PPD1) from yellow lupin (Lupinus luteus) seeds (yellow lupin (Lupinus luteus)). The experiment can be described thus: SAXS; PPD1 in solution, 1-4 mg/ml, SWING beamline at SOLEIL; crystallographic hexamer and trimer models fitted with CRYSOL, ab initio shape reconstruction with GASBOR.
For experiment [3] the target is unchanged. The experiment can be described thus: crystal structure; hanging drop at room temperature, 5 mg/ml PPD1 in 20 mM sodium acetate, 0.5 M NaCl pH 5.2 with Morpheus solution 39 (pH 6.5); asymmetric unit a homotrimer, hexamer generated from crystallographic symmetry; 1.65 Å.

PPD1 (diphosphonucleotide phosphatase/phosphodiesterase), sequence (Q8VX11 27-615): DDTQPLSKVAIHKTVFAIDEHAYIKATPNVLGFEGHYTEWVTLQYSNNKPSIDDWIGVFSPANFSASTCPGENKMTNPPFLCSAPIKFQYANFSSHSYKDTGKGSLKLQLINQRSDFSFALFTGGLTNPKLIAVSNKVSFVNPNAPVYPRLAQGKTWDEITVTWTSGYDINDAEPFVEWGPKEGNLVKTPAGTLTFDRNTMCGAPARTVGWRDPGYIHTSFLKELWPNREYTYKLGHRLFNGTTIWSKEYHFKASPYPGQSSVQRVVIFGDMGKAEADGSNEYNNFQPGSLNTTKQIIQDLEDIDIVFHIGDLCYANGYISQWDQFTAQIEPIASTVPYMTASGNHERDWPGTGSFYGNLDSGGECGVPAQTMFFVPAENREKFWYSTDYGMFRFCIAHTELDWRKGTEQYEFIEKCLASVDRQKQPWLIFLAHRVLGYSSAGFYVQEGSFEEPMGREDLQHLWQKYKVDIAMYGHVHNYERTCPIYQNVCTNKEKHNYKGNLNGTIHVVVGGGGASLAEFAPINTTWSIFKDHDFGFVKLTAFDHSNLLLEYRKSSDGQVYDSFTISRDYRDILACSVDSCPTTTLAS

`O=P(O)(O)O` [phosphate]: the “X-ray crystal structure, 1.65 A” value in experiment [1] is given as “active site of PPD1 with a phosphate ion bound to both of the metal atoms”. Turning to “Diphosphonucleotide phosphatase/phosphodiesterase (PPD1) from yellow lupin (Lupinus luteus) seeds (enzyme)”, the stoichiometry N in experiment [2] and in experiment [3] was 6 each time.

A word on the stoichiometry N: it is a count of units in the complex or per binding partner.

The values are drawn from paper PMC4062093, “The structure of a purple acid phosphatase involved in plant growth and pathogen defence exhibits a novel immunoglobulin-like fold” (Iucrj, 2014).
